Laboratory results taken from patent EP3620472A1 (Sanofi, dated 2020).
Values joined by “and” are separate entries in the source; they are usually repeats but may differ in a detail not shown here. Equal entries are not always repeated. Where two headings read alike, the source gives them in different places.

Tests used:
[1] = biological target: T1, glycosylated human PAI-1 (active form) (human, UniProt P05121 24-402, glycosylated (sites not given)); assay: cell-based or functional assay
endogenous human PAI-1 [2] = biological target: T2, endogenous human PAI-1 (human, UniProt P05121 24-402); assay: cell-based or functional assay
[3] = biological target: T1, glycosylated human PAI-1 (active form); assay: Biacore 2000, mAb captured, single-cycle kinetics
[4] = biological target: T1, glycosylated human PAI-1 (active form); assay: cell-based or functional assay; remark: listed apart in the source
endogenous human PAI-1 [5] = biological target: T2, endogenous human PAI-1; assay: cell-based or functional assay; remark: listed apart in the source
[6] = biological target: T1, glycosylated human PAI-1 (active form); assay: cell-based or functional assay; remark: listed apart in the source
endogenous human PAI-1 [7] = biological target: T2, endogenous human PAI-1; assay: cell-based or functional assay; remark: listed apart in the source
human PAI-1 [8] = biological target: T3, human PAI-1 (human, UniProt P05121 24-402); assay: cell-based or functional assay
cynomolgus PAI-1 [9] = biological target: T4, cynomolgus PAI-1 (cynomolgus (Macaca fascicularis), UniProt P05121 24-402 (human entry)); assay: cell-based or functional assay
cynomolgus PAI-1 [10] = biological target: T4, cynomolgus PAI-1; assay: value used to set up the HDX MS samples
human PAI-1 [11] = biological target: T3, human PAI-1; assay: Biacore supernatant screen, graded off-rate
[12] = biological target: T1, glycosylated human PAI-1 (active form); assay: cell-based or functional assay; remark: listed apart in the source

B1: E16 (antibody, mouse IgG1, V domains shown)
VH: EVKLVESGGGLVKPGGSLKLSCAASGFTFSNYGMSWVRQTPEKGLGWVASLRTGGNTYYSDSVKGRFTISRDNDRNILYLQMSSLTSEDTAVYYCARGLRHWGYFDVWGAGTTVTVSS
VL: DIVMTQSHKFMSTSVGDRVNITCKASQDVSTAVGWYQQEPGQSPKLLIYSASNRHTGVPDRFTGSGSGTDFTFTISSVQAEDLAVYYCQQHYSSPWTFGGGTKLEIK
plasmin generation, IC50abs [1]: 4.74 nM
plasmin generation, Imax [1]: 95%

B2: C45 (antibody, mouse IgG2b, V domains shown)
VH: QVQLQQSGVELVRPGTSVKVSCKASGYAFTNYLIEWIKQRPGQGLEWIGVIHPGSGVTNYNEKFKGKAILTADKSSSTAYMQLSSLTSDDSAVYFCARDYYGSSHGLMDYWGQGTSVTVSS
VL: DIKMTQSPSSMYASLGERVTITCKASQDINSYLSWFQQKPGKSPKTLIYRANRLVDGVPSRFSGSGSGQDYSLTISSLEYEDMGIYYCLQYDEFPRTFGGGTKLEIK
plasmin generation, IC50abs [1]: 6.5 nM
plasmin generation, Imax [1]: 97%

B3: APG (antibody, V domains shown)
VH: QVKLQESGPELVKPGASVKISCKASGYSFTDYNMNWVKQSKGKSLEWIGIIHPNSGTTTYNQKFKGKATLTVDQSSSTAYLQLNSLTSEDSAVYYCARSKLRFFDYWGQGTTVTVSS
VL: DIKLTQSPSSMYASLGERVTITCKASQDIYSYLSWFQQKPGKSPKTLIYRANRLIDGVPSRFSGSGSGQDYSLTISSLEYEHMGIYYCLQYDEFPFTFGSGTKLEIK
notes: mouse antibody; also called mAPG; mouse APG
human plasma, uPA-PAI-1 ELISA IC50abs (endogenous human PAI-1 [2]): 1.81 nM
human plasma, uPA-PAI-1 ELISA Imax (endogenous human PAI-1 [2]): 89.7%
kon [3]: 3.82e+06 M⁻¹ s⁻¹
human plasma clot lysis IC50 [4]: 2.34 nM
human plasma clot lysis Imax @ 100 nM [4]: 123%

B4: A44-hv11 (antibody, V domains shown)
VH: QMTLKESGPTLVKPTQTLSLTCSVSGDSMTNGYWNWIRQFPGKALEYMGYITYSGSTYYNPSLKGRITITRDTSKNQYYLTLSSVTTVDTATYYCARWHYGSPYYFDYWGQGTTLTVSS
VL: DIKMTQSPSSLSASVGDRVTITCKASQDINSYLSWLQQKPGKSPKTLIYRAQRSVEGVPSRFSGSGSGQDYSLTISSLQPEDLGIYYCLQYDEFPPTFGGGTKLEIK
notes: constant regions only as pictures; also called A44V11; A44v11
human liver lysate, uPA-PAI-1 ELISA IC50 (endogenous human PAI-1 [5]): 0.0365 nM and 0.0503 nM and 0.0465 nM
human liver lysate, uPA-PAI-1 ELISA IC50, mean (endogenous human PAI-1 [5]): 0.0444 nM
human plasma clot lysis IC50 [6]: 2 nM
uPA-PAI-1 complex ELISA IC50 (endogenous human PAI-1 [7]): 0.0157 nM
uPA-PAI-1 complex ELISA Y50% (endogenous human PAI-1 [7]): 37.5%
uPA-PAI-1 complex ELISA IC50 (human PAI-1 [8]): 0.131 nM
uPA-PAI-1 complex ELISA Y50% (human PAI-1 [8]): 50.8%
Cyno PAI-1 neutralization IC50 (cynomolgus PAI-1 [9]): 0.0424 nM
Cyno PAI-1 neutralization Y50% (cynomolgus PAI-1 [9]): 50.8%
Kd (cynomolgus PAI-1 [10]): < 0.05 nM
human plasma clot lysis IC50 [4]: 1.38 nM
human plasma clot lysis Imax @ 100 nM [4]: 113%

B5: A44-hv13 (antibody, V domains shown)
VH: QMQLQESGPGLVKPSETLSLTCTVSGDSMTNGYWNWIRQPPGKGLEYMGYITYSGSTYYNPSLKSRITISRDTSKNQYSLKLSSVTAADTAVYYCARWHYGSPYYFDYWGQGTLVTVSS
VL: DIKMTQSPSSLSASVGDRVTITCKASQDINSYLSWLQQKPGKSPKTLIYRAQRSVEGVPSRFSGSGSGQDYSLTISSLQPEDLGIYYCLQYDEFPPTFGGGTKLEIK
uPA-PAI-1 complex ELISA IC50 (endogenous human PAI-1 [7]): 0.0311 nM
uPA-PAI-1 complex ELISA Y50% (endogenous human PAI-1 [7]): 61.4%
uPA-PAI-1 complex ELISA IC50 (human PAI-1 [8]): 0.166 nM
uPA-PAI-1 complex ELISA Y50% (human PAI-1 [8]): 52.8%
Cyno PAI-1 neutralization IC50 (cynomolgus PAI-1 [9]): 0.0281 nM
Cyno PAI-1 neutralization Y50% (cynomolgus PAI-1 [9]): 52.8%

B6: A44-hv12 (antibody, V domains shown)
VH: QMTLKESGPTLVKPTQTLSLTCSVSGDSMTNGYWNWIRQFPGKALEYMGYITYSGSTYYNPSLKGRITITRDTSKNQYYLTLSSVTTVDTATYYCARWHYGSPYYFDYWGQGTTLTVSS
VL: DIKMTQSPSSLSASVGDRVTITCKASQDINSYLSWLQQKPGKSPKTLIYRAQRSVEGVPSRFSGSGSGQDYSLTISSLQPEDLATYYCLQYDEFPPTFGGGTKLEIK
uPA-PAI-1 complex ELISA IC50 (endogenous human PAI-1 [7]): 0.00335 nM
uPA-PAI-1 complex ELISA Y50% (endogenous human PAI-1 [7]): 37.7%
uPA-PAI-1 complex ELISA IC50 (human PAI-1 [8]): 0.114 nM
uPA-PAI-1 complex ELISA Y50% (human PAI-1 [8]): 53.5%
Cyno PAI-1 neutralization IC50 (cynomolgus PAI-1 [9]): 0.0266 nM
Cyno PAI-1 neutralization Y50% (cynomolgus PAI-1 [9]): 53.5%

B7: A44-hv14 (antibody, V domains shown)
VH: QMQLQESGPGLVKPSETLSLTCTVSGDSMTNGYWNWIRQPPGKGLEYMGYITYSGSTYYNPSLKSRITISRDTSKNQYSLKLSSVTAADTAVYYCARWHYGSPYYFDYWGQGTLVTVSS
VL: DIKMTQSPSSLSASVGDRVTITCKASQDINSYLSWLQQKPGKSPKTLIYRAQRSVEGVPSRFSGSGSGQDYSLTISSLQPEDLATYYCLQYDEFPPTFGGGTKLEIK
uPA-PAI-1 complex ELISA IC50 (endogenous human PAI-1 [7]): 0.0586 nM
uPA-PAI-1 complex ELISA Y50% (endogenous human PAI-1 [7]): 73.9%
uPA-PAI-1 complex ELISA IC50 (human PAI-1 [8]): 0.0563 nM
uPA-PAI-1 complex ELISA Y50% (human PAI-1 [8]): 52.5%
Cyno PAI-1 neutralization IC50 (cynomolgus PAI-1 [9]): 0.0287 nM
Cyno PAI-1 neutralization Y50% (cynomolgus PAI-1 [9]): 52.5%

B8: A71 (antibody, mouse IgG1, V domains shown)
VH: QVQLQQSGAELMKPGASVKISCKATGFTFSTYWIEWIKQRPGHGLDWIGEILPGSGNTNYNEKFKGKATFTADTSSNTVYMQLSSLTSEDSAVYYCARGGLYYNLDSWGQGTTLTVSS
VL: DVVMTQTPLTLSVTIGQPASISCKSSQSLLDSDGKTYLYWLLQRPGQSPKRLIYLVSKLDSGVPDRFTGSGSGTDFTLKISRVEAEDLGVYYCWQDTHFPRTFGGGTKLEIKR
plasmin generation, IC50abs [1]: 8.61 nM
plasmin generation, Imax [1]: 90%

B9: A105 (antibody, mouse IgG1, V domains shown)
VH: QVQLQQSGAELMKPGASVKISCKATGFTFSIYWIEWVKQRPGLGLEWIGEILPGSGSTNYNEKFKGKATFTADTSSNTAFMQLSSLTSEDSAVYYCARGGLYYDLDYWGQGTILTVSS
VL: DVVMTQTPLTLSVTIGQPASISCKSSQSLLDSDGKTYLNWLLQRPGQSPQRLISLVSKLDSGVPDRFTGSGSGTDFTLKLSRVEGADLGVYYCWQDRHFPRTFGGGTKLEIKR
plasmin generation, IC50abs [1]: 27 nM
plasmin generation, Imax [1]: 88%

B10: B28 (antibody, mouse IgG2b, V domains shown)
VH: QVQLQQSGAELMKPGASVKISCKATGYTFSISWIEWIKQRPGGLEWIGKILPGSGGANYNEKFKGKATVTADTSSNTVYMQLSSLTSEDSAVYYCARLSTGTRGAFDYWGQGTTLTVSS
VL: DIQLTQSPASLSASVGATVTITCRASENVYSYLAWYQQKQGKSPQLLVYNAKTLAEGVPSRFSGSGSGTQFSLKINYLQPEDFGSYYCQHHYGTPPTFGGGTKVEIKR
plasmin generation, IC50abs [1]: 7.28 nM
plasmin generation, Imax [1]: 90%

B11: B109 (antibody)
chain 1: SGQGLDWIGAIYPGNSDTTYNQKFEDKAKLTAVASASTAYMEVSSLTNEDSAVYYCTRGLRRWGAMDYWGQGTSVTVSS
chain 2: DIVMTQSHKFMSTSAGDRVSIPCKASQDVSSAVAWYQQKLGQSPKLLIYSASFRYTGVPDRFTGSGSGTDFTFTISSVQAEDLAVYYCQQHYSSPYTFGGGTNLEIK
koff (human PAI-1 [11]): ≤ 0.0001 s⁻¹
Chromogenic Assays [12]: 0.23 nM
plasmin generation, IC50abs [1]: 6.11 nM
plasmin generation, Imax [1]: 94%

B12: APGv2 (antibody, V domains shown)
VH: QVQLVQSGSELKKPGASVKVSCKASGYSFTDYNMNWVRQAPGQGLEWIGIIHPNSGTTTYNQKFKGRAVLSVDQSVSTAYLQISSLKAEDTAVYYCARSKLRFFDYWGQGTLVTVSS
VL: DIQLTQSPSSLSASVGDRVTITCKASQDIYSYLSWFQQKPGKAPKTLIYRANRLIDGVPSRFSGSGSGQDYTFTISSLQPEDIATYYCLQYDEFPFTFGQGTKLEIK
notes: humanized; also called APG variant 2
human plasma, uPA-PAI-1 ELISA IC50abs (endogenous human PAI-1 [2]): 0.962 nM
human plasma, uPA-PAI-1 ELISA Imax (endogenous human PAI-1 [2]): 94.5%
kon [3]: 6.58e+06 M⁻¹ s⁻¹
Kd (cynomolgus PAI-1 [10]): < 0.05 nM
human plasma clot lysis IC50 [4]: 2.08 nM
human plasma clot lysis Imax @ 100 nM [4]: 114%

B13: APGv4 (antibody, V domains shown)
VH: QVQLVQSGAEVKKPGASVKVSCKASGYSFTDYNMNWVRQAPGQGLEWIGIIHPNSGTTTYNQKFKGRATLTVDQSTSTAYMELSSLRSEDTAVYYCARSKLRFFDYWGQGTLVTVSS
VL: DIQLTQSPSSLSASVGDRVTITCKASQDIYSYLSWFQQKPGKAPKTLIYRANRLIDGVPSRFSGSGSGQDYTFTISSLQPEDIATYYCLQYDEFPFTFGQGTKLEIK
notes: humanized; also called APG variant 4
human plasma, uPA-PAI-1 ELISA IC50abs (endogenous human PAI-1 [2]): 1.28 nM
human plasma, uPA-PAI-1 ELISA Imax (endogenous human PAI-1 [2]): 94.4%
kon [3]: 9.48e+06 M⁻¹ s⁻¹
human plasma clot lysis IC50 [4]: 2.82 nM
human plasma clot lysis Imax @ 100 nM [4]: 116%

B14: A44 (antibody, mouse IgG1, V domains shown)
VH: EMQLQESGPSLVKPSQTLSLTCSVTGDSMTNGYWNWIRKFPGNKLEYMGYITYSGSTYYNPSLKGRISITRNTSKNQYYLQLSSVTTEDTATYYCARWHYGSPYYFDYWGQGTTLTVSS
VL: DIKMTQSPSSMYASLGERVTITCKASQDINSYLSWLQQKPGKSPKTLIYRANRSVDGVPSRFSGSGSGQDYSLTISSLEYEDMGIYYCLQYDEFPPTFGGGTKLEIKR
plasmin generation, IC50abs [1]: 3.32 nM
plasmin generation, Imax [1]: 97%
